B1: R. flavefaciens, FD-1 XI: xylose isomerase of Ruminococcus flavefaciens FD1, ZP_06143883.1, SEQ ID NO: 110 (protein, listed as Ruminococcus flavefaciens)
chain: MEFFKNISKIPYEGKDSTNPLAFKYYNPDEVIDGKKMRDIMKFALSWWHTMGGDGTDMFGCGTADKTWGENDPAARAKAKVDAAFEIMQKLSIDYFCFHDRDLSPEYGSLKDTNAQLDIVTDYIKAKQAETGLKCLWGTAKCFDHPRFMHGAGTSPSADVFAFSAAQIKKALESTVKLGGTGYVFWGGREGYETLLNTNMGLELDNMARLMKMAVEYGRSIGFKGDFYIEPKPKEPTKHQYDFDTATVLGFLRKYGLDKDFKMNIEANHATLAQHTFQHELCVARTNGAFGSIDANQGDPLLGWDTDQFPTNIYDTTMCMYEVIKAGGFTNGGLNFDAKARRGSFTPEDIFYSYIAGMDAFALGYKAASKLIADGRIDSFISDRYASWSEGIGLDIISGKADMAALEKYALEKGEVTDSISSGRQELLESIVNNVIFNL
B2: Clostridium thermosulfurogenes: xylose isomerase from donor organism Clostridium thermosulfurogenes (protein, UniProt P19148 1-439, looked up)
Xylose isomerase: MNKYFENVSKIKYEGPKSNNPYSFKFYNPEEVIDGKTMEEHLRFSIAYWHTFTADGTDQFGKATMQRPWNHYTDPMDIAKARVEAAFEFFDKINAPYFCFHDRDIAPEGDTLRETNKNLDTIVAMIKDYLKTSKTKVLWGTANLFSNPRFVHGASTSCNADVFAYSAAQVKKALEITKELGGENYVFWGGREGYETLLNTDMEFELDNFARFLHMAVDYAKEIGFEGQFLIEPKPKEPTKHQYDFDVANVLAFLRKYDLDKYFKVNIEANHATLAFHDFQHELRYARINGVLGSIDANTGDMLLGWDTDQFPTDIRMTTLAMYEVIKMGGFDKGGLNFDAKVRRASFEPEDLFLGHIAGMDAFAKGFKVAYKLVKDRVFDKFIEERYASYKDGIGADIVSGKADFRSLEKYALERSQIVNKSGRQELLESILNQYLFAE
B3: Bacillus licheniformis: xylose isomerase from donor organism Bacillus licheniformis (protein, UniProt P77832 1-448, looked up)
Xylose isomerase: MFFRNIGMIEYEGADSENPYAFKYYNPDEFVGGKTMKEHLRFAVAYWHTFDADGKDPFGDGTMFRAWNRLTHPLDKAKARAEAAFEFFEKLGVPYFCFHDVDIVDEGATLRETFTYLDQMSSFLKEMMETSHVQLLWNTANMFTHPRYVHGAATSCNADVYAYAAAKVKKGLDIAKELGAENYVFWGGREGYETLLNTDMKLELENLSSFYRMAVEYAREIGFDGQFLIEPKPKEPTKHQYDFDAATTIAFLETYGLKDHFKLNLEANHATLAGHTFEHELRVAALHDMLGSIDANQGDLLLGWDTDEFPTDLYSAVLAMYEILKAGGFKTGGINFDAKVRRPSFADEDLFHAHIAGMDTYAVGLKVASRLLEDKALDQVIEERYESYTKGIGLEIKEGRTDLKKLAAYALENDHIENQSGRQERLKATVNRYLLNALREAPAGKETH
B4: Escherichia coli: xylose isomerase from donor organism Escherichia coli (protein, listed as Escherichia coli)
chain: MQAYFDQLDRVRYEGSKSSNPLAFRHYNPDELVLGKRMEEHLRFAACYWHTFCWNGADMFGVGAFNRPWQQPGEALALAKRKADVAFEFFHKLHVPFYCFHDVDVSPEGASLKEYINNFAQMVDVLAGKQEESGVKLLWGTANCFTNPRYGA
B5: Clostridium phytofermentans: xylose isomerase from donor organism Clostridium phytofermentans (protein)
chain: MKNYFPNVPEVKYEGPNSTNPFAFKYYDANKVVAGKTMKEHCRFALSWWHTLCAGGADPFGVTTMDRTYGNITDPMELAKAKVDAGFELMTKLGIEFFCFHDADIAPEGDTFEESKKNLFEIVDYIKEKMDQTGIKLLWGTANNFSHPRFMH
modifications: Clostridium phytofermentans
B6: Arabidopsis thaliana: xylose isomerase from donor organism Arabidopsis thaliana (protein, UniProt Q9FKK7 1-477, looked up)
Xylose isomerase: MKKVEFFMLLLCFIAASSLVSADPPTCPADLGGKCSDSDDWQGDFFPEIPKIKYEGPSSKNPLAYRWYNAEEEILGKKMKDWFRFSVAFWHTFRGTGGDPFGAATKYWPWEDGTNSVSMAKRRMRANFEFLKKLGVDWWCFHDRDIAPDGTTLEESNKNLDEVIELAKELQKGSKIKPLWGTAQLFLHPRYMHGGATSSEVGVYAYAAAQVKKAMEVTHYLGGENYVFWGGREGYQTLLNTDMGRELDHLARFFEAAVAYKKKIGFKGTLLIEPKPQEPTKHQYDWDAATAANFLRKYGLIDEFKLNIECNHATLSGHTCHHELETARINGLLGNIDANTGDAQTGWDTDQFLTDVGEATMVMMSVIKNGGIAPGGFNFDAKLRRESTDVEDLFIAHISGMDTMARGLRNAVKILEEGSLSELVRKRYATWDSELGKQIEEGKADFEYLEKKAKEFGEPKVSSAKQELAEMIFQSAM
B7: Staphylococcus xylosus: xylose isomerase from donor organism Staphylococcus xylosus (protein, UniProt P27157 1-439, looked up)
Xylose isomerase: MSYFDINKVNYEGPKSNNAFSFKYYNPEEKLGNHSMSELLRFSVAYWHTFTADLSDPFGVGVAERDWDSLDEMEKAKARVEAIFEFMEKTRIDYFCFHDVDISPEGASLKESNENLDIIVELIKEKMDQTGKKLLWNTTNNFTHERFVHGAATSSNAEVFAYAAAKVKKSLEIAKKLGSENFVFWGGREGYESLLNTNMKLELDNLATFFKMAKSYADEIGYTGQFLIEPKPKEPTTHQYDTDVATAHAFLQKYDLDKDFKFNIEANHATLAGHTFQHELRYARDNNMLGSVDANQGHPLLGWDTDESTDVYDTTLAMYEILKNGGLAPGGLNFDAKPRRTSFKQEDLILTHIAGMDTFALGLRVAYKMIEDNFFENIMDEKYKSFNEGIGKKIVEGETSLKELEDYAFNINTINNTSDHLEVIKSQINQYILNINNKD
B8: Psudomonas savastanoi: xylose isomerase from donor organism Psudomonas savastanoi (protein, UniProt Q48J73 1-438, looked up)
Xylose isomerase: MPYFPAVDKVRYEGPDSDSPLAFRHYDADKLILGKPMREHLRMAACYWHTFVWPGADMFGVGTFKRPWQGSGDPLELAIGKAETAFEFFSKLGIDYYSFHDTDVAPEGSSLKEYRNNFAQMIDQLERHQEQTGIKLLWGTANCFSNPRFAAGAASNPDPEVFAYAATQVFSAMNATQRLKGANYVLWGGREGYETLLNTDLRQEREQLGRFMRMVVEHKHKIGFKGDLLIEPKPQEPTKHQYDYDSATVFGFLQQYGLEKEIKVNIEANHATLAGHSFHHEIATAVSLGIFGSIDANRGDPQNGWDTDQFPNSVEEMTLATYEILKAGGFTNGGYNFDSKVRRQSLDEVDLFHGHVAAMDVLALALERAAAMVQNDKLQQFKDQRYAGWQQPFGKSLLAGEFSLESLAKHAFDKDLNPQAVSGRQELLEGVVNRFIYF
B9: Bacillus subtilis: xylose isomerase from donor organism Bacillus subtilis (protein, UniProt P0CI80 1-445, looked up)
Xylose isomerase: MAQSHSSSINYFGSANKVVYEGKDSTNPLAFKYYNPQEVIGGKTLKEHLRFSIAYWHTFTADGTDVFGAATMQRPWDHYKGMDLAKMRVEAAFEMFEKLDAPFFAFHDRDIAPEGSTLKETNQNLDMIMGMIKDYMRNSGVKLLWNTANMFTNPRFVHGAATSCNADVFAYAAAQVKKGLETAKELGAENYVFWGGREGYETLLNTDLKFELDNLARFMHMAVDYAKEIGYTGQFLIEPKPKEPTTHQYDTDAATTIAFLKQYGLDNHFKLNLEANHATLAGHTFEHELRMARVHGLLGSVDANQGHPLLGWDTDEFPTDLYSTTLAMYEILQNGGLGSGGLNFDAKVRRSSFEPDDLIYAHIAGMDAFARGLKVAHKLIEDRVFEDVIQHRYRSFTEGIGLEIIEGRANFHTLEQYALNHKSIKNESGRQEKLKAILNQYILEV

Test system: not listed separately
Assay: Xylose isomerase activity/kinetic assay on soluble whole cell extract (sorbitol dehydrogenase coupled, NADH, A340)
Format: biochemical
Conditions: 500 mM xylose, 100 μg total soluble crude extract, expressed in S. cerevisiae
Description: […] Louis, Mo.), and about 2 U sorbitol dehydrogenase (Roche) at about 30° C. […] A Beckman DU-800 was utilized with an Enzyme Mechanism software package (Beckman Coulter, Inc.), and the change in the A340 was monitored for 2-3 minutes.
[…] Louis, Mo.), and 2 U Sorbitol Dehydrogenase (SDH) (Roche, Indianapolis, Ind.) at about 30° C. […] A Beckman DU-800 spectrophotometer was utilized with an Enzyme Mechanism software package (Beckman Coulter, Inc, Brea, Calif.), and the change in the A340 was monitored for 2-3 minutes.
[…] Louis, Mo.), and 2 U sorbitol dehydrogenase (SDH) (Roche, Indianapolis, Ind.) at about 30° C. […] A Beckman DU-800 spectrophotometer was utilized with an Enzyme Mechanism software package (Beckman Coulter, Inc, Brea, Calif.), and the change in the A340 was monitored for 2-3 minutes.
Approximately 20 μg of soluble whole cell extract from each transformed cell line was prepared using Y-PER plus reagent as described above was incubated in a solution containing about 100 mM Tris, pH 7.5, 10 mM MgCl ? 2, 0.15 mM NADH (Sigma, St. Louis, Mo.), and 2 U Sorbitol Dehydrogenase (SDH) (Roche, Indianapolis, Ind.) at about 30° C. […] A Beckman DU-800 spectrophotometer was utilized with an Enzyme Mechanism software package (Beckman Coulter, Inc, Brea, Calif.), and the change in the A340 was monitored for 2-3 minutes.

| Molecule | activity (slope) at saturating xylose (FIG. 25) |
| --- | --- |
| B1 | highest activity of the candidates tested |

Same assay, conditions: xylose concentrations between 40 and 500 nM (so in the source)

| Molecule | specific activity relative to native XI control activity |
| --- | --- |
| B1 | greater than 2 fold |

Test system: engineered yeast (S. cerevisiae)
Assay: Heterologous xylose isomerase expression in yeast (active yes/no)
Format: cell-based
Conditions: xylose isomerase of donor organism expressed in engineered yeast (S. cerevisiae)

| Molecule | Active? (yes/no) |
| --- | --- |
| Streptomyces rubiginosus: xylose isomerase from donor organism Streptomyces rubiginosus | No |
| Streptomyces diastaticus subsp diastaticus: xylose isomerase from donor organism Streptomyces diastaticus subsp diastaticus | No |
| Actinoplanes missouriensis: xylose isomerase from donor organism Actinoplanes missouriensis | No |
| Thermus thermophilus: xylose isomerase from donor organism Thermus thermophilus | Yes |
| Bacteroides thetaiotaomicron: xylose isomerase from donor organism Bacteroides thetaiotaomicron | Yes |
| B2 | No |
| B3 | No |
| B4 | No |
| B5 | Yes |
| B6 | No |
| B7 | No |
| B8 | No |
| B9 | No |

From patent US20120184020A1, “ENGINEERED MICROORGANISMS WITH ENHANCED FERMENTATION ACTIVITY” (Verdezyne, Inc., priority 2009, published 2012)
